Assays:
Test in all cases: SPR; BIAcore T100; scFv-His10-CLAMP (150 nM) captured on ePDZ-b1 affinity clamp immobilised on a CM5 chip; purified SHC1 injected at increasing concentrations, 30 ul/min; PBS with 0.05% Tween 20; global fit, 1:1 interaction model
[1] = target: anti-SHC1 scFv 72_1A10, His10-CLAMP-tagged
[2] = target: anti-SHC1 scFv 72_2B01, His10-CLAMP-tagged
[3] = target: six of the eight chain-shuffled derivatives (positive in immunoprecipitation), as measured by SPR

anti-SHC1 scFv 72_1A10, His10-CLAMP-tagged, sequence (heavy, as listed by the source): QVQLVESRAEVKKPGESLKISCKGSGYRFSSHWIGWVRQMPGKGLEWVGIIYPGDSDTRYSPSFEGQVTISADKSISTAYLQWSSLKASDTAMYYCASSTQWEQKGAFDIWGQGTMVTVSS

Kd [1]: 25 nM
fold improvement in affinity over 58 E05 [2]: 59 fold
fold reduction in off-rate against 58 E05 [2]: 3.2 fold
Kd [3]: < 60 nM
koff [3]: < 0.1 s⁻¹
B1: SHC1 SH2 domain (purified SHC1 antigen) (domain or fragment)
chain: WFHGKLSRREAEALLQLNGDFLVRESTTTPGQYVLTGLQSGQPKHLLLVDPEGVVRTKDHRFESVSHLISYHMDNHLPIISAGSELCLQQPV

Reference: article PMC3171153
